Substitutions are numbered along the chain they refer to. Numbers in names are those of the source.
How the values were obtained:
S. aureus cells [1] = assay: Lytic assay of culture supernatant (SYTOX Green); assay type: cell-based, Staphylococcus aureus; details: single point mutants
Procedure: (§1) S. aureus cells were grown either to mid-log or to saturation in tryptic soy broth (TSB) at 37° C. with shaking. The cells were harvested by centrifugation and washed once in phosphate buffered saline (PBS: 2.7 mM KCl, 1.5 mM KH2PO4, 8.9 mM Na2HPO4, 136.9 mM NaCl, pH 7.4). The assay was performed in 96-well, black, clear bottom plates from Greiner Bio-One (Monroe, N.C.). The final (250 μl) reaction was composed of 10 μl of P. pastoris culture supernatant, S. aureus cells at OD600=1.5, and 5 μM SYTOX Green (Thermo Fisher Scientific; Waltham, Mass.), all in PBS. Data were collected using SPECTRAMAX GEMINI Fluorescence Microplate Reader (Molecular Devices; Sunnyvale, Calif.) using an excitation/emission of 504/523 nm, and rates were determined from the slope of the steepest linear portion of the trace. Each assay was performed with 500 ng of commercially-sourced lysostaphin (ssLys) as an internal control.
The amount of protein used in each assay was estimated from SDS-PAGE gels. Briefly, 10 μl of culture supernatant was run on a SDS-PAGE gel together with standards of 0.5 μg, 0.7 μg, and 1 μg of ssLys in separate lanes. The gel was stained using GELCODE Blue Stain Reagent from Thermo Fisher Scientific (Carlsbad, Calif.) and bands quantified using Quantity Tools from Image Lab 5.1 software (Bio-Rad Laboratories; Hercules, Calif.).

S. aureus SA113 [2] = assay: MIC assay using P. pastoris culture supernatant (MIC50); assay type: cell-based, Staphylococcus aureus; details: aglycosylated mutants
Procedure: Lysostaphin MIC was determined essentially as described (Zhao, et al. (2014) supra). Briefly, 100 μl aliquots of P. pastoris culture supernatant were serially diluted in TSB. Each well was inoculated with 100 μl of ˜10^6 CFU/ml S. aureus SA113 in TSB. Microplates were incubated at 37° C. for 24 hours. […] MIC50 was quantified by measuring light scattering at 650 nm in a microplate reader.

S. aureus SA113 [3] = assay: MIC assay; assay type: cell-based, Staphylococcus aureus; details: for MIC: S. aureus SA113, purified enzyme; for MIC Strain SA113: biological duplicates
Procedure: (§2) The MICs of wild-type lysostaphin and its variants were determined by adding 2-fold serial dilutions of enzymes into wells of a polypropylene 96-well plate (Costar 3879) containing ˜40,000 S. aureus SA113 (or S. aureus 6445, 3425-1, 3425-3) cells in Muller Hinton broth (BD) supplemented with 2% NaCl and 0.1% bovine serum albumin, yielding a total volume of 100 μl. Plates were grown overnight at 37° C. with shaking at 900 rpm on an Orbit P4 orbital shaker (Labnet; Edison, N.J.). […] The assay was performed in triplicate for each enzyme.

S. aureus cells [4] = assay: Lytic assay using purified protein (SYTOX kinetic assay); assay type: cell-based, Staphylococcus aureus; details: for % Wild-Type Activity: 200 ng purified enzyme; for % WT Lytic Rate: biological duplicates
Procedure: as §1
The activity of purified lysostaphin variants was examined using the SYTOX kinetic assay as previously described in Chapter 2, Section 3.2.6. 200 ng of purified enzyme (instead of culture supernatant) was used in each reaction.

[5] = Thermostability by differential scanning fluorimetry; assay type: physicochemical
Procedure: The relative thermostability of the lysostaphin variants was determined by differential scanning fluorimetry, as previously described (Niesen, et al. (2007) Nat. Protocols 2:2212-2221). Proteins and SYPRO Orange were diluted in PBS (final concentrations of 100 μg/ml and 5× in 20 μl reaction volume, respectively), and fluorescence was quantified at 1-degree increments from 25 to 94° C. using an Applied Biosystems ABI 7500 fast real-time PCR system. The reactions were performed using PCR Plates for Fast Thermocyclers (VWR; Radnor, Pa.). Fluorescence was quantified using the preset TAMRA parameters. Melting temperatures were determined by data analysis with the ‘DSF Analysis v3.0.xlsx’ EXCEL sheet and GraphPad Prism v.6.02 software.

S. aureus 3425-1 = assay: MIC assay; assay type: cell-based, Staphylococcus aureus; details: biological duplicates
Procedure: as §2

MRSA strain 3425-3 = assay: MIC assay; assay type: cell-based, Staphylococcus aureus; details: biological duplicates
Procedure: as §2

S. aureus 6445 = assay: MIC assay; assay type: cell-based, Staphylococcus aureus; details: biological duplicates
pooled splenocytes = details: mouse, in vivo
From the text: HUMI mice were constructed by surgical transplantation of human bone marrow, liver, and thymus tissues into NOD/SCID/γc^−/− mice (Dartmouth Transgenics & Genetic Constructs Shared Resource) as described (Brainard, et al. (2009) J. Virol. 83:7305-21). All animals were humanized from the same human donor. Mice used experimentally had human lymphocytes as a minimum of 25% of their total peripheral blood leukocytes. Fourteen weeks post-engraftment, 12 female HUMI mice were divided into 3 groups of 4 each and immunized with a single 50 μl subcutaneous injection of 100 μg wild-type LST, 100 μg variant Flex 5, or 100 μg variant Flex 9 in complete Freund's adjuvant (CFA). Two weeks following the immunization, mice were sacrificed and splenocytes were harvested and pooled for each group. Pooled splenocytes (5×10^5/well) were plated in triplicate into 96-well plates with medium containing 5% fetal calf serum, 1-glutamine, antibiotics, and a final concentration of 10 μg/ml LST or variants (or 1% DMSO as a control). […]
In vivo immunogenicity was evaluated using NOD/SCID/γc^−/− mice that had been surgically humanized with human immune cells, liver tissue, and thymus tissue (HUMI mice). […] Cell proliferation was measured by tritiated thymidine uptake at 72 hours.

MRSA strain USA400 [6] = assay: In vitro inhibitory activity (MIC); assay type: cell-based, Staphylococcus aureus
From the text: F11, P12 and F13 were screened for in vitro inhibitory activity against MRSA strain USA400 (FIG. 7).

MRSA strain USA400 [7] = assay: Efficacy of F12 in recurrent systemic MRSA infections; assay type: in vivo, DR4 HLA transgenic mice; details: for # Treated Mice Surviving: 1×10^9 MRSA USA400 i.p., 500 μg enzyme 1 hour later
Procedure: In a similar set of experiments, the immunogenicity and efficacy of variant F12 was compared to wild-type LST in the absence of adjuvant using DR4 HLA transgenic mice. At week 0, mice were challenged with an intraperitoneal injection of 2×10^8 MRSA strain USA400, and 1 hour later the mice were treated with 500 μg wild-type LST or 500 μg variant F12, given as a single bolus subcutaneous injection. Subsequently, mice were challenged weekly with an intraperitoneal injection of 1×10^9 MRSA strain USA400, and treated as above. Antibody titers were measured weekly beginning at week 2. […] Variant F12 rescued all mice from four recurrent, systemic, MRSA infections (Table 24). The substantially lower antibody titers elicited by variant F12 indicate that this variant is […] than wild-type LST.

For Ser124Tyr, the “activity, % of the wild-type activity” value (S. aureus cells [1]) was 16%.

For Phe38Gly, the “activity, % of the wild-type activity” value (S. aureus cells [1]) was 69%.

With “Ser126Pro: aglycosylated lysostaphin mutant Ser126Pro, backbone of the designs” the “activity compared to the wild-type lysostaphin” value (S. aureus SA113 [2]) was “equivalent activity”.

For Thr127Ala, the “activity compared to the wild-type lysostaphin” value (S. aureus SA113 [2]) was “equivalent activity”.

With “Flex 14: lysostaphin variant I41E, S122D; two mutation design shared between rigid and flexible designs” the MIC (S. aureus SA113 [3]) was 0.0833 µg/mL, the “% Wild-Type Activity” value (S. aureus cells [4]) was 69% and the Tm ([5]; SYPRO Orange, PBS) was 58.6 °C.

With “Commercial: Commercial lysostaphin purchased from Sigma, E. coli-produced” the “MIC Strain SA113” value (S. aureus SA113 [3]) was 0.03 µg/mL, the “MIC Strain 3425-1” value (S. aureus 3425-1) was 0.04 µg/mL and the “MIC Strain 3425-3” value (MRSA strain 3425-3) was 0.03 µg/mL. For the same molecule, the “% WT Lytic Rate” value (S. aureus cells [4]) was 60 ± 20%, the Tm ([5]; biological duplicates) was 47.3 °C and the “MIC Strain 6445” value (S. aureus 6445) was 0.03 µg/mL.

B1: Flex 9: lysostaphin variant N12G, I41E, L83M, K95E, I99Q, N121G, S122D, S124G (protein, UniProt P10547 248-493, looked up, variant N12G I41E L83M K95E I99Q N121G S122D S124G)
Lysostaphin: AATHEHSAQWLGNYKKGYGYGPYPLGINGGMHYGVDFFMNEGTPVKAISSGKIVEAGWSNYGGGNQIGLIENDGVHRQWYMHMSKYNVKVGDYVEAGQQIGWSGSTGYSTAPHLHFQRMVGDFGNSTAQDPMPFLKSAGYGKAGGTVTPTPNTGWKTNKYGTLYKSESASFTPNTDIITRTTGPFRSMPQSGVLKAGQTIHYDEVMKQDGHVWVGYTGNSGQRIYLPVRTWNKSTNTLGVLWGTIK
In the case of B1, the MIC (S. aureus SA113 [3]) is reported as 0.1250 µg/mL, the concentration preventing outgrowth (S. aureus SA113 [3]; all four strains (SA113, 6445, 3425-1, 3425-3)) is reported as at most 200 ng/mL and the “MIC Strain SA113” value (S. aureus SA113 [3]) is reported as 0.04 µg/mL. The “MIC Strain 3425-1” value (S. aureus 3425-1) was 0.2 µg/mL, the “MIC Strain 3425-3” value (MRSA strain 3425-3) was 0.2 µg/mL and the “% Wild-Type Activity” value (S. aureus cells [4]) was 57%. For the same molecule, the “% WT Lytic Rate” value (S. aureus cells [4]) was 60 ± 20%, the “reduced proliferative response relative to wild-type group” value (pooled splenocytes) was 65% and the Tm ([5]; SYPRO Orange, PBS) was 53.0 °C. For the same molecule, the Tm ([5]; biological duplicates) was 52.8 °C and the “MIC Strain 6445” value (S. aureus 6445) was 0.13 µg/mL.

B2: F12: variant combining cell wall binding domain mutations with Flex 9 (or derivative) catalytic domain (Table 22) (protein)
chain: B1 Lysostaphin with E95K, S126P, Y160H, S166N, A169G, R186T, N232Q, N236D
For B2, the “MIC activity relative to wild-type LST” value (MRSA strain USA400 [6]) was 25%, the “retained original MIC activity after heating” value (MRSA strain USA400 [6]; 50° C. for 1 hour prior to assay) was 50% and the “recurrent systemic MRSA infections from which mice were rescued” value (MRSA strain USA400 [7]; 500 μg s.c., weekly challenges, no adjuvant) was “four”. For the same molecule, the “# Treated Mice Surviving” value (MRSA strain USA400 [7]; Week 1) was 9, the “# Treated Mice Surviving” value (MRSA strain USA400 [7]; Week 2) was 8 and the “# Treated Mice Surviving” value (MRSA strain USA400 [7]; Week 3) was 7. For the same molecule, the “# Treated Mice Surviving” value (MRSA strain USA400 [7]; Week 4) was 6.

B3: Flex 6: lysostaphin variant N12G, I41E, I99Q, N121G, S122D (protein, UniProt P10547 248-493, looked up, variant N12G I41E I99Q N121G S122D)
Lysostaphin: B1 Lysostaphin with M83L, E95K, G124S
In the case of B3, the MIC (S. aureus SA113 [3]) is reported as 0.2083 µg/mL, the “% Wild-Type Activity” value (S. aureus cells [4]) is reported as 58% and the Tm ([5]; SYPRO Orange, PBS) is reported as 54.1 °C.

B4: Flex 8: lysostaphin variant N12G, I41E, L83M, I99Q, N121G, S122D (protein, UniProt P10547 248-493, looked up, variant N12G I41E L83M I99Q N121G S122D)
Lysostaphin: B1 Lysostaphin with E95K, G124S
For B4, the MIC (S. aureus SA113 [3]) was 0.2083 µg/mL, the “% Wild-Type Activity” value (S. aureus cells [4]) was 60% and the Tm ([5]; SYPRO Orange, PBS) was 52.9 °C.

B5: Flex 10: lysostaphin variant N12G, I41E, N121G, S122D (protein, UniProt P10547 248-493, looked up, variant N12G I41E N121G S122D)
Lysostaphin: B1 Lysostaphin with M83L, E95K, Q99I, G124S
In the case of B5, the MIC (S. aureus SA113 [3]) is reported as 0.0729 µg/mL, the “% Wild-Type Activity” value (S. aureus cells [4]) is reported as 62% and the Tm ([5]; SYPRO Orange, PBS) is reported as 57.5 °C.

B6: Flex 1: lysostaphin variant I41E, I99Q, S122D (SEQ ID NO:32) (protein)
chain: B1 Lysostaphin with G12N, K46H, M83L, E95K, Q99I, R118T, G121N, S126P
For B6, the MIC (S. aureus SA113 [3]) was 0.0833 µg/mL, the “% Wild-Type Activity” value (S. aureus cells [4]) was 63% and the Tm ([5]; SYPRO Orange, PBS) was 55.4 °C.
